Laboratory results published in patent US20220220214A1 (AB INITIO BIOTHERAPEUTICS, published 2022).

Tests used:
[1] = molecular target: T1, apelin (APJ) receptor on APJ-expressing cells (Homo sapiens (Human), UniProt P35414 1-380); assay: cell-based or functional assay
T1 sequence: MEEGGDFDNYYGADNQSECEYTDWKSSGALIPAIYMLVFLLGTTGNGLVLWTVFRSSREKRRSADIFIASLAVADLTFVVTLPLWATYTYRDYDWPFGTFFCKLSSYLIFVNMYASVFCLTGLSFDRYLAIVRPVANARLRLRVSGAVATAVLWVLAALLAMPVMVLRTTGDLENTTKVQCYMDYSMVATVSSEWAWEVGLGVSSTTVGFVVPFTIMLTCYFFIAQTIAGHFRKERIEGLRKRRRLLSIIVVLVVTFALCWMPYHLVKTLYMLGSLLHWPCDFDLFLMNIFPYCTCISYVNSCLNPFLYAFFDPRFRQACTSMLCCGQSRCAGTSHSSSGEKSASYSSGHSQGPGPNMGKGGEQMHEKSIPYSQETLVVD

[2] = molecular target: T1, apelin (APJ) receptor on APJ-expressing …; assay: method not stated (Example 2)
[3] = molecular target: T2, mouse APJ receptor expressed on CT26 cells (mouse, UniProt Q9WV08 1-377); assay: binding to the surface of CT26 cells
T2 construct: whole, on cells
T2 sequence (looked up): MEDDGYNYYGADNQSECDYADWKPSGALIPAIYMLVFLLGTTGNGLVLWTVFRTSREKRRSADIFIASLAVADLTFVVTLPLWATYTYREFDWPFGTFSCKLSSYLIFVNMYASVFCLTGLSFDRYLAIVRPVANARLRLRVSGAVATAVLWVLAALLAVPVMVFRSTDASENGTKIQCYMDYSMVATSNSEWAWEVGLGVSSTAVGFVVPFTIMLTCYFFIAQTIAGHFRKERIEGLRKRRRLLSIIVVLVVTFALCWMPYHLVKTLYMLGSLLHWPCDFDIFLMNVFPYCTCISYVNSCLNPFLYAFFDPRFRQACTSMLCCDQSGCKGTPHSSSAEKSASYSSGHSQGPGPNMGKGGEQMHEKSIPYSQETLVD

Binder | Fold suppression (saturated), β-arrestin signaling [1] [fold] | Kd [2] [nM] | Ki [2] [nM] | Kd [3] [nM]
VHH-22 (VHH, Nanobody) VHH: QVQLQESGGGLVQAGGSLRLSCAASGNIFRGRVMGWYRQAPGKEREFVAGIDYGASTNYADSVKGRFTISRDNAKNTVYLQMNSLKPEDTAVYYCAARLSERRRLEGYWSAVHVYWGQGTQVTVSS | 5.9 | 13 |  | 
VHH-23 (VHH, Nanobody) VHH: QVQLQESGGGLVQAGGSLRLSCAASGNISPFRAMGWYRQAPGKEREFVAAINTGAITNYADSVKGRFTISRDNAKNTVYLQMNSLKPEDTAVYYCAASCRAYASRIDLFSYHTYWGQGTQVTVSS | 8.5 |  | 39 | 
VHH-21 (VHH, Nanobody; VHH-21-Fc (aglycosylated human IgG1 Fc) was used in vivo; also called negative allosteric modulator VHH-21) VHH: QVQLQESGGGLVQAGGSLRLSCAASGSISVGYLMGWYRQAPGKERELVAGINYGSNTYYADSVKGRFTISRDNAKNTVYLQMNSLKPEDTAVYYCAASQRRAYAARIDLFSYHTYWGQGTQVTVSS |  |  |  | ~100
